Measurements reported in US20250145724A1.

Columns and labels:
[1] = target: Adenosine A2A receptor (human) (human) (UniProt P29274); experiment: flow cytometry titration 0.05-100 nM IgG, MFI; grey curve and grey number taken as HEK293-A2a cells, black (ND) as parent cells; same data as FIG. 17H
[2] = target: Adenosine A2A receptor (human) (human) (UniProt P29274); experiment: flow cytometry, control antibody, HEK293-A2a cells (A2a Singlets); Parent Singlets median 230; same picture as FIG. 16O
[3] = target: Adenosine A2A receptor (human) (human) (UniProt P29274); experiment: flow cytometry titration 0.05-100 nM IgG, MFI; grey curve and grey number taken as HEK293-A2a cells, black (ND) as parent cells, no legend on the sheet
[4] = target: Adenosine A2A receptor (human) (human) (UniProt P29274); experiment: flow cytometry, control antibody, HEK293-A2a cells (A2a Singlets); Parent Singlets median 230
[5] = target: Adenosine A2A receptor (human) (human) (UniProt P29274); experiment: cell-based or functional assay

Adenosine A2A receptor (human) (human), sequence (P29274 whole entry): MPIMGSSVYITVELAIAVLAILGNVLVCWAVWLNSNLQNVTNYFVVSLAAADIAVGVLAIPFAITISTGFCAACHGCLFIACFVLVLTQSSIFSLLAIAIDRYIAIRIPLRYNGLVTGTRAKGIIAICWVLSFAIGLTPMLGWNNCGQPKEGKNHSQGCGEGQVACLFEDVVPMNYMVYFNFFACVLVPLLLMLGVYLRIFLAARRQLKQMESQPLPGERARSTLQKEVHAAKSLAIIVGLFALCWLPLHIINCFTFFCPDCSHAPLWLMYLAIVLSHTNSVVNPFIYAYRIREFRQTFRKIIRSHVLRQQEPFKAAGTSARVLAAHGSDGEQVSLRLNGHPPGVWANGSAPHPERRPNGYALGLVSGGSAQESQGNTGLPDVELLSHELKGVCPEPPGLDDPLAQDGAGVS

Row | Substance | EC50 [1] | Median : RL1-H [2] | EC50 [3] | Median : RL1-H [4] | Absolute IC50, A2A cAMP antagonist titration [5] | Absolute IC50, LANCE allosteric cAMP assay (titrated IgG, fixed NECA) [5] | Absolute IC50, cAMP allosteric A2A Perkin Elmer assay [5]
1 | Human Adenosine A2aR monoclonal (MAB9497) (antibody) | 21.7 nM | 7500 | 21.7 nM | 7500 |  |  | 
2 | R&D control antibody |  |  |  |  | 9.43 | 9.43 nM | 0.513 nM
